Laboratory results from PMC2715239.
Values joined by “and” are separate entries in the source; they are usually repeats but may differ in a detail not shown here. Identical values can stand only once. One block for each substance: values may come before it.

Assays:
Assay in all cases: SEC-MALS
[1] = molecular target: BcMCM C200 truncation (Bacillus cereus)
[2] = molecular target: full-length Bacillus cereus MCM (BcMCM) (Bacillus cereus)
[3] = molecular target: BcMCM N399 truncation (Bacillus cereus)

stoichiometry N [1]: 2 and 3 and 4
Substance: BcMCM C200 truncation (domain or fragment)

stoichiometry N [2]: 2
Substance: full-length Bacillus cereus MCM (BcMCM) (enzyme)

stoichiometry N [3]: 2 and 4
Substance: BcMCM N399 truncation (domain or fragment)
